According to publication PMC3807590:

Tests used:
[1] = molecular target: Chicken skeletal muscle α-actin (F-actin, unlabeled) (chicken) (UniProt P68139); experiment: co-sedimentation; increasing tropomyosin (0-10 µM) mixed with 5 µM actin in F-buffer (2 mM HEPES, pH 7.6, 40 mM NaCl, 5 mM MgCl2) at 22°C, ultracentrifuged; supernatants and pellets on SDS-PAGE; apparent constants (Kapp)
[2] = molecular target: Chicken skeletal muscle α-actin (F-actin, unlabeled) (chicken) (UniProt P68139)
[3] = molecular target: Chicken skeletal muscle α-actin labeled with DABMI at Cys374 (chicken) (UniProt P68139)

## Ala232Cys-TM1b9a labeled with AEDANS
[1]
  Ka: 1.24e+07 M⁻¹

## Chicken skeletal myosin subfragment 1 (S1) (domain or fragment)
[2]
  Actin–myosin S1 ATPase activity in the presence of TM1b9a/A232C; 0.8 µM S1, 9.2 µM F-actin, 1.2 µM tropomyosin (nmol Pi/mg S1/min): 126
  Actin–myosin S1 ATPase activity in the presence of TM1b9a; 0.8 µM S1, 9.2 µM F-actin, 1.2 µM tropomyosin (nmol Pi/mg S1/min): 108
  Actin–myosin S1 ATPase activity in the presence of TM2/S269C; 0.8 µM S1, 9.2 µM F-actin, 1.2 µM tropomyosin (nmol Pi/mg S1/min): 112
  Actin–myosin S1 ATPase activity in the presence of TM2; 0.8 µM S1, 9.2 µM F-actin, 1.2 µM tropomyosin (nmol Pi/mg S1/min): 91.7
  Actin–myosin S1 ATPase activity in the presence of TM5a/S232C; 0.8 µM S1, 9.2 µM F-actin, 1.2 µM tropomyosin (nmol Pi/mg S1/min): 184
  Actin–myosin S1 ATPase activity in the presence of TM5a; 0.8 µM S1, 9.2 µM F-actin, 1.2 µM tropomyosin (nmol Pi/mg S1/min): 169
  Actin–myosin S1 ATPase activity in the presence of skTM/A269C; 0.8 µM S1, 9.2 µM F-actin, 1.2 µM tropomyosin (nmol Pi/mg S1/min): 104
  Actin–myosin S1 ATPase activity in the presence of skTM; 0.8 µM S1, 9.2 µM F-actin, 1.2 µM tropomyosin (nmol Pi/mg S1/min): 103
[3]
  S1/actin molar ratio of strongly bound myosin heads required for half-maximal change in FRET between AEDANS-TM1b9a/A232C and DABMI-actin (S1/actin molar ratio): 0.14
  S1/actin molar ratio of strongly bound myosin heads required for half-maximal change in FRET between AEDANS-TM2/S269C and DABMI-actin (S1/actin molar ratio): 0.12
  S1/actin molar ratio of strongly bound myosin heads required for half-maximal change in FRET between AEDANS-TM5a/S232C and DABMI-actin (S1/actin molar ratio): 0.08
  S1/actin molar ratio of strongly bound myosin heads required for half-maximal change in FRET between AEDANS-skTM/A269C and DABMI-actin (S1/actin molar ratio): 0.15

## Chimeric rat α-tropomyosin TM1b9a
[1]
  Ka: 1.27e+07 M⁻¹

## Recombinant rat non-muscle α-tropomyosin isoform TM2 (natural protein)
[1]
  Ka: 2.25e+07 M⁻¹

## Recombinant rat non-muscle α-tropomyosin isoform TM5a (natural protein)
[1]
  Ka: 1.42e+07 M⁻¹

## Ser232Cys-TM5a labeled with AEDANS (natural protein)
[1]
  Ka: 1.49e+07 M⁻¹

## Ser269Cys-TM2 labeled with AEDANS (natural protein)
[1]
  Ka: 2.04e+07 M⁻¹
